These results are taken from patent US5733890A, “Adenylate analogs as potent anti-herpes virus agents” (National Science Council, priority 1996, dated 1998).

What all share (experiment): Deamination kinetics of compounds as substrates of adenosine deaminase
Format in all cases: biochemical, calf
Holding throughout (conditions): other: adenosine deaminase substrate; buffer solutions

Substrate in series [1]: Nc1ncnc2c1ncn2[C@@H]1O[C@H](CO)[C@@H](O)[C@@H]1O
The source says: (§1) By following an established procedure [Ogilvie, K. K.; Nguyen-Ba, N.; Gillen, M. F.; Radatus, B. K.; Cheriyan, U. O.; Hanna, H. R.; Smith, K. O.; Galloway, K. S. Synthesis of A Purine Acyclonucleoside Series Having Pronounced Antiviral Activity. The Glyceropurines. Can. J. Chem. 1984, 62, 241-252.], we determined the rates of deamination of VI, 13, 37, 40, and 42 in the presence of calf mucosal adenosine deaminase (EC 3.5.4.4) in buffer solutions.

Substrate in series [2]: Nc1ncnc2c1ncn2COCCP(=O)(O)O
Description: as §1

Substrate in series [3]: Nc1ncnc2c1ncn2COCCO
Description: as §1

Substrate in series [4]: Nc1ncnc2c1ncn2COCCP(=O)(O)O[C@H]1[C@H](O)[C@H](n2cnc3c(N)ncnc32)O[C@@H]1CO
Description: as §1

B1: calf mucosal adenosine deaminase (EC 3.5.4.4) (Bos taurus) (protein)
chain: MAQTPAFNKPKVELHVHLDGAIKPETILYYGRKRGIALPADTPEELQNIIGMDKPLSLPEFLAKFDYYMPAIAGCREAVKRIAYEFVEMKAKDGVVYVEVRYSPHLLANSKVEPIPWNQAEGDLTPDEVVSLVNQGLQEGERDFGVKVRSILCCMRHQPSWSSEVVELCKKYREQTVVAIDLAGDETIEGSSLFPGHVKAYAEAVKSGVHRTVHAGEVGSANVVKEAVDTLKTERLGHGYHTLEDATLYNRLRQENMHFEVCPWSSYLTGAWKPDTEHPVVRFKNDQVNYSLNTDDPLIFKSTLDTDYQMTKNEMGFTEEEFKRLNINAAKSSFLPEDEKKELLDLLYKAYGMPSPASAEQCL
notes: calf mucosal adenosine deaminase; from tissue; host or cells: calf mucosa
For orientation: Km means the concentration of substrate that gives half-maximal velocity. On to B1, for which the Km in series [1] amounted to 45.3 µM; in series [2], 247.5 µM; in series [3], 138.0 µM; in series [4] it was 166.2 µM.
